Data taken from patent publication EP3922644A2 (The Texas A&M University System, dated 2021).

What was measured:
human fibrinogen (human) [1] = biological target: human fibrinogen (human) (UniProt P02671); assay: ELISA, GST-tagged Coa fragment on immobilized Fg
human fibrinogen (human) [2] = biological target: human fibrinogen (human) (UniProt P02671); assay: apparent affinity, ELISA, GST-tagged Coa fragment on immobilized Fg
human fibrinogen (human) [3] = biological target: human fibrinogen (human) (UniProt P02671); assay: apparent KD, solid phase binding assay, DC2-Fg coated 1 µg/well, Fg titrated 0-0.3 µM
human fibrinogen (human) [4] = biological target: human fibrinogen (human) (UniProt P02671); assay: apparent KD, solid phase binding assay, Efb coated 1 µg/well, Fg titrated 0-0.3 µM
[5] = biological target: Fibrinogen-D fragment (human, plasmin digest) (human) (UniProt P02671); assay: ITC (VP-ITC), peptide titrated into 10 µM Fg-D, one-site model, 27°C
[6] = biological target: T1, Efb-N30-105, His-tagged recombinant protein (Staphylococcus aureus strain Newman, UniProt A6QG59 30-105); assay: apparent Kd from half maximum binding in ELISA
T1 construct: range 30-105; not shown: polyhistidine tag (detected with anti-HIS-tag antibody)
T1 sequence (looked up): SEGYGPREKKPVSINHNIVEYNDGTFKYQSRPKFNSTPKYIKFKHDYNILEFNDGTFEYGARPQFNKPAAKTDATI

[7] = biological target: Efb-A30-67, GST-tagged recombinant protein (Staphylococcus aureus strain Newman, UniProt P08515 1-218 = GST; A6QG59 30-67); assay: apparent Kd from half maximum binding in ELISA
[8] = biological target: T2, rEfb-O (Efb 68-98), GST-tagged recombinant protein (Staphylococcus aureus strain Newman); assay: apparent Kd from half maximum binding in ELISA
T2 construct: also called Efb-O68-98; not shown: N-terminal GST tag from pGEX-5x-1
T2 chain: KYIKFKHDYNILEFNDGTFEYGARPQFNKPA

[9] = biological target: T3, Fibrinogen-D fragment (human, plasmin digest) (human, UniProt P02671 124-225; P02675 164-491; P02679 89-437); assay: ITC (VP-ITC), peptide titrated into 10 µM Fg-D, one-site model, 27°C
T3 construct: domain: D fragment; Made by digesting human Fg with plasmin for 4 h and gel filtration; also called Fg-D; Fg-D fragment
T3 sequence 1: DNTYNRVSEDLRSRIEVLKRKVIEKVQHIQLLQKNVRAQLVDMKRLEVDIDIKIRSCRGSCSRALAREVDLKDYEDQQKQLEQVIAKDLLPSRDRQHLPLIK
T3 sequence 2: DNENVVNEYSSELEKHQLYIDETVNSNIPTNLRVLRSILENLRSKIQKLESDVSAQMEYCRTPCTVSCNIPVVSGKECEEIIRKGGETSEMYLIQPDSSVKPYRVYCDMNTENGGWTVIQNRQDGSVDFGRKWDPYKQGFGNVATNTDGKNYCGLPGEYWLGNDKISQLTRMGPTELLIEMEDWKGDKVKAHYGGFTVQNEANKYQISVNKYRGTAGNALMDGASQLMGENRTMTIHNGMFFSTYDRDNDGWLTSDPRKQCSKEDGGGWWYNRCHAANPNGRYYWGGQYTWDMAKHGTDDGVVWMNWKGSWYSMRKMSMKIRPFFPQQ
T3 sequence 3: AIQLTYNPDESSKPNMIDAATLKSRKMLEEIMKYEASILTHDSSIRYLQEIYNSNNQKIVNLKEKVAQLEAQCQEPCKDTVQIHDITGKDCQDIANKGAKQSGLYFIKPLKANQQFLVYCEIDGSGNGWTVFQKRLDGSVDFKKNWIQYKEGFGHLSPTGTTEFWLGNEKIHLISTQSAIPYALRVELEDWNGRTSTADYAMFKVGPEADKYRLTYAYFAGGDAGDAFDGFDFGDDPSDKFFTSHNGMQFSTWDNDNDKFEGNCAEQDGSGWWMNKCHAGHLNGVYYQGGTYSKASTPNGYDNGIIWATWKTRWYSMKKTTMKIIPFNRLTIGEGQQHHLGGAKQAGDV

With “Coa-C (Coa 311-636), GST-tagged (from UniProt P08515 1-218)” the EC50 (human fibrinogen (human) [1]) was 7.5 nM.

“Coa-R (Coa 506-636), GST-tagged (from UniProt P08515 1-218)” was tested, and the Kd (human fibrinogen (human) [2]) was 0.8 nM.

“DC2-Fg, DC2 with the fibrinogen binding motif Efb-O inserted after Gln 301 (designed binder)” gave a Kd (human fibrinogen (human) [3]) of 10 nM.

“Efb as coated in the solid phase binding assay of the DC proteins (from UniProt A6QG59 30-165)” gave a Kd (human fibrinogen (human) [4]) of 1 nM.

In the case of sCoa-RI3, synthetic peptide Coa 502-528, the Kd [5] is reported as 124 nM.

sCoa-RV1, synthetic peptide Coa 610-636 gave a Kd [5] of 139 nM.

B1: FBE5-F11 (Fc fusion)
VH: QVQLQESGGGVVQPGRSLRLSCAASGFTFSSYGMHWVRQAPGKGLEWVAVISYDGSNKYYADSVKGRFTISRDNSKNTLYLQMNSLRAEDTAVYYCAKDLASSGFDYWGQGTLVTVSS
VL: QSVLTQPPSVSAAPGQKVTISCSGSSSNIGNNYVSWYQQLPGTAPKLLIYDNNKRPSGIPDRFSGSKSGTSATLGITGLQTGDEADYYCGTWDSSLSAEVFGGGTKLTVL
notes: Tested as scFv-Fc (human scFv from HAL9/HAL10 recloned into pCSE2.6-hIgG1-Fc-XP, made in HEK293-6E)
Work on B1 yielded a Kd [6] of roughly 0.1 nM, a Kd [7] of roughly 0.1 nM and a Kd [8] of roughly 0.1 nM.

Molecule ETNAYNVTTHANGQVSYGARPTYKKPS (also called peptide CoaRI) [sCoa-RI, synthetic peptide Coa 506-532] has a Kd [9] of 88 nM.
